Results as given in PMC3481545 (Biochemistry, 2012).

B2: human recombinant BMPR-II ECD, wild type (domain or fragment, UniProt Q13873 26-150, looked up)
chain: ASQNQERLCAFKDPYQQDLGIGESRISHENGTILCSKGSTCYGLWEKSKGDINLVKQGCWSHIGDPQECHYEECVVTTTPPSIQNGTYRFCCCSTDLCNVNFTENFPPPDTTPLSPPHSFNRDET
B3: BMPR-II ECD Y40Q (domain or fragment, human, UniProt Q13873 26-150, looked up)
chain: ASQNQERLCAFKDPQQQDLGIGESRISHENGTILCSKGSTCYGLWEKSKGDINLVKQGCWSHIGDPQECHYEECVVTTTPPSIQNGTYRFCCCSTDLCNVNFTENFPPPDTTPLSPPHSFNRDET
B4: BMPR-II ECD Y40R (domain or fragment, human, UniProt Q13873 26-150, looked up)
chain: ASQNQERLCAFKDPRQQDLGIGESRISHENGTILCSKGSTCYGLWEKSKGDINLVKQGCWSHIGDPQECHYEECVVTTTPPSIQNGTYRFCCCSTDLCNVNFTENFPPPDTTPLSPPHSFNRDET
B5: BMPR-II ECD G47N (domain or fragment, human, UniProt Q13873 26-150, looked up)
chain: ASQNQERLCAFKDPYQQDLGINESRISHENGTILCSKGSTCYGLWEKSKGDINLVKQGCWSHIGDPQECHYEECVVTTTPPSIQNGTYRFCCCSTDLCNVNFTENFPPPDTTPLSPPHSFNRDET
B6: BMPR-II ECD Y40G (domain or fragment, human, UniProt Q13873 26-150, looked up)
chain: ASQNQERLCAFKDPGQQDLGIGESRISHENGTILCSKGSTCYGLWEKSKGDINLVKQGCWSHIGDPQECHYEECVVTTTPPSIQNGTYRFCCCSTDLCNVNFTENFPPPDTTPLSPPHSFNRDET
B7: BMPR-II ECD S107P (domain or fragment, human, UniProt Q13873 26-150, looked up)
chain: ASQNQERLCAFKDPYQQDLGIGESRISHENGTILCSKGSTCYGLWEKSKGDINLVKQGCWSHIGDPQECHYEECVVTTTPPPIQNGTYRFCCCSTDLCNVNFTENFPPPDTTPLSPPHSFNRDET
B8: GDF-5 (ligand, UniProt P43026 382-501, looked up)
chain: APLATRQGKRPSKNLKARCSRKALHVNFKDMGWDDWIIAPLEYEAFHCEGLCEFPLRSHLEPTNHAVIQTLMNSMDPESTPPTCCVPTRLSPISILFIDSANNVVYKQYEDMVVESCGCR
B9: BMPR-II ECD Y40P (domain or fragment, human, UniProt Q13873 26-150, looked up)
chain: ASQNQERLCAFKDPPQQDLGIGESRISHENGTILCSKGSTCYGLWEKSKGDINLVKQGCWSHIGDPQECHYEECVVTTTPPSIQNGTYRFCCCSTDLCNVNFTENFPPPDTTPLSPPHSFNRDET

Legend:
Experiment in all cases: SPR
[1] = target: B8
[2] = target: Activin (UniProt P08476 311-426)
[3] = target: T1, BMP-7 (UniProt P18075 293-431)
T1 sequence (looked up): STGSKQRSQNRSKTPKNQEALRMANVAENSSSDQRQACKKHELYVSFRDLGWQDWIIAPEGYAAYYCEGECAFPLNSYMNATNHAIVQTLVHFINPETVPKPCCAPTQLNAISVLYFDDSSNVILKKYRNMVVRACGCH

[4] = target: B7
[5] = target: B5
[6] = target: B3
[7] = target: B6
[8] = target: B4
[9] = target: B2
[10] = target: B9

B1: Chimera BAB: BMPR-II ECD with the ActR-IIB A-loop (domain or fragment)
chain: ASQNQERLCAFKDPYQQDLGIGESRISHENGTILCSKGSTCYGLWEKSKGDINLVKQGCWDDFNCYDRQCVVTTTPPSIQNGTYRFCCCSTDLCNVNFTENFPPPDTTPLSPPHSFNRDET
Question: For B1, which Kd [1] is on record?
Answer: The Kd was 197 µM.

Question: And the Kd [2]?
Answer: Its Kd is 5 µM.

Question: And the Kd [3]?
Answer: Its Kd is 59 µM.

Question: B2 was tested. Which Kd [3] did it give?
Answer: Its Kd is 135 µM.

Question: With B3 as the binder, how does the Kd [3] read?
Answer: The Kd was 129 µM.

Question: Which Kd [3] does the source give for B4 here?
Answer: The Kd was 117 µM.

Question: With B5 as the binder, how does the Kd [3] read?
Answer: Its Kd is 92 µM.

Question: For B6, which Kd [3] is on record?
Answer: The Kd was 138 µM.

Question: Which Kd [3] does the source give for B7 here?
Answer: The Kd was 43 µM.

Question: Which results are given for B8?
Answer: Kd [4]: 90 µM; Kd [5]: 136 µM; Kd [6]: 175 µM; Kd [7]: 123 µM; Kd [8]: 117 µM; Kd [9]: 221 µM; Kd [10]: 200 µM

Question: Which Kd [3] does the source give for B9 here?
Answer: The Kd was 157 µM.
